The test deals with Bacillus anthracis Bla1 β-lactamase (Bacillus anthracis).

Sequence of BLIP [change] (P35804 37-201 Y86A): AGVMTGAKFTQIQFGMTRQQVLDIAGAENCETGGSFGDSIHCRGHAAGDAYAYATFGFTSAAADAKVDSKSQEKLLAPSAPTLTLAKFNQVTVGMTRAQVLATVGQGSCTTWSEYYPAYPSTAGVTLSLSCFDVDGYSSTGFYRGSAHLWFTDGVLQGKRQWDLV

Substance “BLIP [change] (from UniProt P35804 37-201) (natural protein)” displayed a Ki of 1.2 nM.
